The source of these data is paper PMC7959842, “Deregulation of Factor H by Factor H-Related Protein 1 Depends on Sialylation of Host Surfaces” (Frontiers in Immunology, 2021).

Broadly, the Kd is the concentration at which binding is half-saturated. Read a high Kd as lower affinity.

The target in assay [1] is C3b (UniProt P01024). Description: SPR; AP C3 convertase formation: ~6,000 RU C3b amine-coupled on a CMD500M chip; FB (600 nM) + FD (100 nM) injected alone or mixed with analyte (9.6 uM); signal of the analyte alone subtracted; 25 C, PBS 0.005% Tween20, 1 mM MgCl2. (In general: Surface plasmon resonance follows binding to a sensor surface in real time, without labels.)
Assay [2] has as its target C3b (UniProt P01024). Description: SPR; C3b immobilised in two ways: biotin coupling (~1,500 RU on a streptavidin SAP chip) and amine coupling (~7,250 RU on a CMD500M chip); analytes flowed (FH18-20 constructs 0.16-40 or 0.63-40 uM, FHR-1 constructs 0.04-10 uM); 25 C, PBS 0.005% Tween20, 25 ul/min; 1:1 steady-state affinity fit; the printed ranges span both ways of immobilisation.

Consider “FHR-1 (factor H-related protein 1, FHR-1*B, wild-type) (from UniProt Q03591 19-330) (natural protein)”, for which the decrease of the AP C3 convertase signal (FB + FD on C3b) with the analyte co-injected at 9.6 uM with C3b [1] stood at 50%.

Take “FHR-1(SV) (from UniProt Q03591 19-330) (natural protein)”: the Kd with C3b [2] lay in the range of 1400 to 1500 nM. For the same substance, in the assay with C3b [1], the decrease of the AP C3 convertase signal (FB + FD on C3b) with the analyte co-injected at 9.6 uM came to 50%.
